Data as given in patent US11505586B2, “Interaction of Draxin and γ-netrins” (Max-Planck-Gesellschaft zur Foerderung der Wissenschaften …, priority 2014, dated 2022).

What was measured:
Netrin1a = assay: AVEXIS extracellular protein-protein interaction screen; format: binding, zebrafish
Excerpt: To detect extracellular protein-protein interactions in a high-throughput manner we used the AVEXIS assay as described in Bushell et al. (Bushell et al., 2008) with minor modifications.
In brief: A zebrafish protein library enriched for mainly in neuronal tissues expressed secreted proteins and extracellular domains of cell surface proteins has been assembled. The library consists of prey and bait proteins. Preys are composed of the extracellular domain (ECD) of interest followed by a CD4 tag (rat Cd4d3+4) and a pentamerization domain derived from the rat Comp protein followed by β-lactamase. For the bait proteins the ECDs are fused to a CD4 tag and a biotinylation peptide. […] The proteins in the supernatants have been quantified and normalized.
The bait proteins have been immobilized on streptavidin coated 96 well microtiter plates (one bait/well) and incubated for 1 hour at room temperature. […] Then the absorbance at 486 nm of each well has been measured using a μQuant spectrophotometer (BIO-TEK Instruments, INC). […]
In the primary screen interactions were ‘called’ if the absorbance (at 486 nm) of a well after 1 h of incubation was ≥0.1 and 3 Sigma above the standard deviations of the mean of all wells. All interactions detected in the primary screen have been retested in a validation screen by using independently produced batches of proteins.

Netrin-1 = molecular target: T1, Netrin-1 (Homo sapiens, UniProt O95631); assay: AVEXIS pairwise binding screen, human proteins; conditions: both bait/prey orientations
T1 construct: made in house; host or cells: HEK293-6E (general AVEXIS method)
Excerpt: (§1) AVEXIS was used to test pairwise binding events in both bait/prey orientations between human DRAXIN, the derived 21 amino acid peptide, human Netrin family members, and two representative Netrin receptors (DCC, UNC5B). The Matn4-bait served as an internal prey-protein control and was used for normalization of the A486 nm values; conditioned medium (CM) serves as negative control; n=3.
(§2) To determine the binding specificity of DRAXIN/Netrin interactions, we carried out a pairwise binding screen between human DRAXIN and human Netrin family members. Except Netrin-5, we included all human Netrin family members consisting of two secreted γ-Netrins (Netrin-1 and Netrin-3) and one secreted (Netrin-4) and two GPI-linked β-Netrins (Netrin-G1 and Netrin-G2) in our binding study. Human DRAXIN and a 21 amino acid Netrin binding fragment derived thereof (SEQ ID NO.: 1) bound to Netrin-1 and Netrin-3 but not to human β-Netrin family members (FIG. 13).

Netrin-3 = molecular target: T2, Netrin-3 (Homo sapiens, UniProt O00634); assay: AVEXIS pairwise binding screen, human proteins; conditions: both bait/prey orientations
T2 construct: made in house; host or cells: HEK293-6E (general AVEXIS method)
Excerpt: as §1, §2

[1] = tested on: human β-Netrin family members; assay: AVEXIS pairwise binding screen, human proteins; conditions: Netrin-4, Netrin-G1, Netrin-G2
Excerpt: as §1, §2

Netrin receptors = assay: AVEXIS direct binding to Netrin receptors; design: species or system zebrafish; conditions: AVEXIS platform
Excerpt: (§3) By using an AVEXIS-based competition assay (FIG. 6 A) we tested whether the binding of DraxinA to Netrin1a has an influence on Netrins ability to bind to Netrin receptors. First we confirmed that we reliably detected the binding of Netrin1a to Netrin receptors of the DCC/Neo1 and Unc5 families with the AVEXIS method. We also tested whether Draxin is able to bind to the corresponding Netrin receptors. […] This has also been confirmed by a recent publication (Haddick et al. 2014). In the competition assay the extracellular domains (ECDs) of Netrin receptors have been used as prey proteins together with purified full length DraxinA and probed for binding against Netrin1a bait proteins. […] The inhibition is specific for DraxinA.

recombinant human DCC = molecular target: T3, recombinant human DCC (Homo sapiens, UniProt P43146); assay: Surface Plasmon Resonance; format: binding; conditions: Biacore 3000, Draxin 0-18.8 nM
T3 construct: made in house; host or cells: HEK293-6E
Procedure: (§4) Surface Plasmon Resonance (SPR) experiments were performed on a Biacore 3000 (GE Healthcare) at 25° C. using a SA sensor chip in 0.01 M HEPES, pH 7.4, 0.15 M NaCl, 0.005% Surfactant P20 (HBS-P) running buffer at a flow rate of 30 μl/min. The instrument was used according to manufacturer's instructions.
(§5) Recombinant human Draxin was purchased from R&D systems. Biotinylated recombinant human UNC5B, Netrin1 and DCC were produced recombinantly using the described mammalian expression system (HEK293-6E). Biotinylated proteins were immobilised on the SA coated sensor chip and Draxin was injected sequentially in increasing concentrations (0 nM, 1.2 nM. 2.3 nM, 4.7 nM, 9.4 nM, 18.8 nM) for 3 min. […] No binding of Draxin to UNC5B and DCC was detected (FIG. 14).

recombinant human UNC5B = molecular target: T4, recombinant human UNC5B (Homo sapiens, UniProt Q8IZJ1); assay: Surface Plasmon Resonance; format: binding; conditions: Biacore 3000, Draxin 0-18.8 nM
T4 construct: made in house; host or cells: HEK293-6E
Procedure: as §4, §5

Netrin1a/DCC = assay: AVEXIS based competition assay; format: binding, zebrafish
Excerpt: (§6) The procedure of the competition assay is based on the AVEXIS assay. Netrin1 receptors were used as prey proteins together with 6×His ? tagged purified Draxin (potential antagonist), and probed against Netrin1a bait proteins. The indicated concentrations of the potential inhibitors have been added together with prey proteins. For the competition tests with purified Draxin the concentration of the Netrin receptor prey proteins has been adjusted to an identical threshold binding concentration.
We determined the concentration of ECD-hFc fusion proteins in tissue culture supernatants by ELISA, using the human IgG Fc fragment (Calbiochem) as a reference. Dilution series of the ECD-hFc containing supernatants have been incubated over night at 4° C. on 96 well Maxisorp plates (Nunc). After 3 PBS washes the plates were blocked with 0.5% BSA containing PBS (1 h). After additional 2 PBS washes and 1-hour incubation with an anti-human IgG (Fc specific) antibody fused to alkaline phosphatase (SIGMA) the plates have been washed 3 times with PBS. The detection has been carried out by addition of 50 μl/well of the AP substrate p-nitrophenylphosphate (SouthernBiotech). The substrate turnover has been determined by measuring the absorbance at 405 nm.
as §3

Netrin1a/Neo1 = assay: AVEXIS based competition assay; format: binding, zebrafish; conditions: purified protein with Neo1 prey, Netrin1a bait
Excerpt: as §6, §3

Netrin1a/Unc5b = assay: AVEXIS based competition assay; format: binding, zebrafish; conditions: purified protein with Unc5b prey, Netrin1a bait
Excerpt: as §6, §3

RGMc/Neo1 = assay: AVEXIS based competition assay; format: binding, zebrafish

T2 sequence (O00634 28-580): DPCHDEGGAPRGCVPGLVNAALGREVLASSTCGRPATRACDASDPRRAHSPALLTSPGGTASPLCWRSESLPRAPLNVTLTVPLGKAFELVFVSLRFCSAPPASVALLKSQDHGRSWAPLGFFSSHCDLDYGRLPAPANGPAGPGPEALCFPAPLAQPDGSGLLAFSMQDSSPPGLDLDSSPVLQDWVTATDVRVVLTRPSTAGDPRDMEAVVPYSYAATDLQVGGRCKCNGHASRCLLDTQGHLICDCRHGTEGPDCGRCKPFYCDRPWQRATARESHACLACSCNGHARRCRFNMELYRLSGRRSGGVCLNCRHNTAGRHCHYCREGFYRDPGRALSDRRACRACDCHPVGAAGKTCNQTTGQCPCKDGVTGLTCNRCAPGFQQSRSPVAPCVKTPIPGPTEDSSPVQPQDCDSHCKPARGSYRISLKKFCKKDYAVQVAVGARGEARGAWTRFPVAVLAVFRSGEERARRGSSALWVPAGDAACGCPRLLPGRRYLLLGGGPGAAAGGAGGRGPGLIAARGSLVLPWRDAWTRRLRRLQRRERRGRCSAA
T3 sequence (P43146 26-1097 limits assumed): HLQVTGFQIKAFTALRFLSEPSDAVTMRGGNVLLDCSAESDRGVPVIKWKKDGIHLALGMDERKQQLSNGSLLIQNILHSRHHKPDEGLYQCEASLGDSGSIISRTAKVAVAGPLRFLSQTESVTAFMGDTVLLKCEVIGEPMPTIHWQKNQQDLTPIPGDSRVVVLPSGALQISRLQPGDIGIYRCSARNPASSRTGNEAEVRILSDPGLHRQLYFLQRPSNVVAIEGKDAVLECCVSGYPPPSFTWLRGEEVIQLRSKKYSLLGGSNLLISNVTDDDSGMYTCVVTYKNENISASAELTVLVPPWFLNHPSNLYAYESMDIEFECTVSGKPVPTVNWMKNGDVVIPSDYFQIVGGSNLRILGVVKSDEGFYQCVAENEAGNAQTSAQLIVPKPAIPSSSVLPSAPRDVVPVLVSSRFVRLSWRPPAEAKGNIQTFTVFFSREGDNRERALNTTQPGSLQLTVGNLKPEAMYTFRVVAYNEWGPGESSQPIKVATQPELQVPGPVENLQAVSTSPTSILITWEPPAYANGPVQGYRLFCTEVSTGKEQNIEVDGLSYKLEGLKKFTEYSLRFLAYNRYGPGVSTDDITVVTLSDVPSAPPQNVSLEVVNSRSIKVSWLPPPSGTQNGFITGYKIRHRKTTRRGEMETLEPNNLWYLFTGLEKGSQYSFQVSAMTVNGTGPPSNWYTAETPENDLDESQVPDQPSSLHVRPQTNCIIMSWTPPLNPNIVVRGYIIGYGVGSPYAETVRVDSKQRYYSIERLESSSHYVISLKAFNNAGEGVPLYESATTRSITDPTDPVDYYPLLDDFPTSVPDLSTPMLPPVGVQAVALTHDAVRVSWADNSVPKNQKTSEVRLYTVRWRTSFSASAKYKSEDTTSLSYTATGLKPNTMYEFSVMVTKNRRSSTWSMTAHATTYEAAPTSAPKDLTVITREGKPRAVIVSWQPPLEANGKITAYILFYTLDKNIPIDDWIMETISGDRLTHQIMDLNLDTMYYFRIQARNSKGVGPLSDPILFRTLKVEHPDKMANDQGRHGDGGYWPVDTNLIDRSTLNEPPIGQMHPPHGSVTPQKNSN

B1: Human DRAXIN: human Draxin (SEQ ID NO.: 4) expressed as AVEXIS bait/prey protein (protein, listed as Homo sapiens)
chain: MAGPAIHTAPMLFLVLLLPLELSLAGALAPGTPARNLPENHIDLPGPALWTPQASHHRRRGPGKKEWGPGLPSQAQDGAVVTATRQASRLPEAEGLLPEQSPAGLLQDKDLLLGLALPYPEKENRPPGWERTRKRSREHKRRRDRLRLHQGRALVRGPSSLMKKAELSEAQVLDAAMEESSTSLAPTMFFLTTFEAAPATEESLILPVTSLRPQQAQPRSDGEVMPTLDMALFDWTDYEDLKPDGWPSAKKKEKHRGKLSSDGNETSPAEGEPCDHHQDCLPGTCCDLREHLCTPHNRGLNNKCFDDCMCVEGLRCYAKFHRNRRVTRRKGRCVEPETANGDQGSFINV
modifications: AVEXIS bait/prey tags
**Q.** With B1 as the molecule, how does the “binding of human Draxin to zebrafish Netrin1a” value (Netrin1a; cross-species, both bait-prey orientations) read?
**A.** Its value is “able to bind”.

**Q.** What about the “binding to Netrin-1” value (Netrin-1) of the same molecule?
**A.** The value was “bound”.

**Q.** And the “binding to Netrin-3” value (Netrin-3)?
**A.** The value was “bound”.

**Q.** What about the “binding to human β-Netrin family members” value [1] of the same molecule?
**A.** Its value is “not”.

B2: Draxin: Recombinant human Draxin purchased from R&D systems (protein, listed as Homo sapiens)
chain: B1 chain
**Q.** Which “direct binding to Netrin receptors” value (Netrin receptors) does the source give for B2 here?
**A.** The value was “not able to detect direct binding”.

**Q.** What about the “binding to immobilised DCC” value (recombinant human DCC) of the same molecule?
**A.** Its value is “No binding”.

**Q.** What about the “binding to immobilised UNC5B” value (recombinant human UNC5B) of the same molecule?
**A.** Its value is “No binding”.

B3: DraxinA: full-length zebrafish Draxin isoform A (SEQ ID NO.: 5), 360 amino acids; purified as His-tagged CD4d3+4 fusion (protein)
chain: MVAPGLCQLFILLLITLSHTLHSSEISSDNFKQSLTPSTTTSKEHPETGLTGGRQQKRHWSGKERDSAGLFSQRHMDRLEDDGTSMEGLSPVRLEMGPGDTMKAEVHGEVRASAQMRQGSHPAEGELNRKGRRHSHRLLAEHRKHGGKKDKGRGKGDLSDPEPELDSLLKDLNAFEDGLNTSPPNYNSVPLNEVPSPLSPILVTTAIKGHPPTLPPASTKPQKSSQGRTQGEVMPTLDMTLFDWTDYEDMKPADSWPSNKRKDKRRSKNKSNGNTTTEAGIVEPCDHHLDCLSGSCCDLREFECKPHNRGLNNKCFDDCMCEEGLRCYAKFHRKRRVTRRRGRCVDPESVNSNQGAFITV
modifications: His-tagged CD4d3+4 fusion; Danio rerio
notes: purified as His-tagged CD4d3+4 fusion
**Q.** How did the “binding of prey protein to Netrin1a bait” value (Netrin1a; pentameric prey, library of 171 bait proteins) turn out when B3 was run?
**A.** Its value is “specifically bound”.

**Q.** And the “disruption of already formed DCC/Netrin1a complexes” value (Netrin1a/DCC; Netrin1a-baits preincubated with DCC preys, then purified DraxinA added)?
**A.** Its value is “can be disrupted”.

**Q.** And the “inhibition of binding of Netrin1a to DCC” value (Netrin1a/DCC; inhibitor added together with DCC prey, Netrin1a bait)?
**A.** The value was “concentration dependent inhibition”.

**Q.** And the “inhibition of binding of Netrin1a to Neo1” value (Netrin1a/Neo1)?
**A.** Its value is “concentration dependent inhibition”.

**Q.** What about the “inhibition of binding of Netrin1a to Unc5b” value (Netrin1a/Unc5b) of the same molecule?
**A.** The value was “concentration dependent inhibition”.

**Q.** And the “inhibition of binding of RGMc to Neo1” value (RGMc/Neo1)?
**A.** Its value is “not able to block”.
